Experimental findings from patent US20170097353A1 (University of California, published 2017) are described below.

Ends that are not written are not given here. * marks the point of attachment. Butanoyl(4-N3) = [N-]=[N+]=NCCCC(=O)*

The test concerns the target T1, Prostate Specific Membrane Antigen (PSMA) on the surface of LNCaP / LNCaP CSS prostate cancer cells (human, UniProt Q04609 1-750, glycoprotein).
T1 construct: whole, on cells; Endogenous PSMA on LNCaP cells (derived from lymph node adenocarcinoma of the human prostate); Cells were glutaraldehyde-fixed on Maxisorp plates in the cell-based phage ELISA, or in suspension in the sandwich ELISA; also called cell surface PSMA
Put plainly: cell-based phage ELISA on LNCaP cells (FIG. 5A). Background: An ELISA detects its analyte on a solid surface through an enzyme-linked reagent.

T1 sequence (Q04609 whole entry): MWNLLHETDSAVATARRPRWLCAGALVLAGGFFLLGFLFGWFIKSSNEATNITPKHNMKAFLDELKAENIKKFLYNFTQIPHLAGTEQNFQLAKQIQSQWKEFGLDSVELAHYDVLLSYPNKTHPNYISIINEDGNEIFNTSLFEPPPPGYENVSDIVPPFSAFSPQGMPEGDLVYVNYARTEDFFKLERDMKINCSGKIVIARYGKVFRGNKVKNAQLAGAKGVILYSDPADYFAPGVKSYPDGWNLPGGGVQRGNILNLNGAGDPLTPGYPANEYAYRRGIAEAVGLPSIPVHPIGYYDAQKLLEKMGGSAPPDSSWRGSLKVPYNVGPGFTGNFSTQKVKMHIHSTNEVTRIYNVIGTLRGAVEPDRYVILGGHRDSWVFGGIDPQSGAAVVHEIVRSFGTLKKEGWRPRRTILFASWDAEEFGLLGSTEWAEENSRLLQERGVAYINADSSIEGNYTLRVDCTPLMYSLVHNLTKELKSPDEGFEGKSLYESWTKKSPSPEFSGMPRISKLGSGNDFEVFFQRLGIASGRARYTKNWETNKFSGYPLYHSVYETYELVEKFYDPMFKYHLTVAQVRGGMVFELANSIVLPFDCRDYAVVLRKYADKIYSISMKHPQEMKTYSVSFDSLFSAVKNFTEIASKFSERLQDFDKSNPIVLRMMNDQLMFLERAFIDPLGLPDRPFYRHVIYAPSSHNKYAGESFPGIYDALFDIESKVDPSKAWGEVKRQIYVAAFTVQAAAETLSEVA

B1: P100NSP-P4-2 on phage (PEG100, non-specific attachment, PEG4 linker, ligand 2; on M13 phage wrapped with K14-Cys) (peptide)
peptide: {pentynoic acid-15‑azido‑4,7,10,13‑tetraoxapentadecanoic acid}-SECVEVFQNSCDW-NH2
modifications: not fully specified; cysteine pairing not given here; also: pentynoic acid clicked to azide (triazole), Mal-PEG100-NH2 HBTU-coupled non-specifically
notes: Multivalent display on M13 phage wrapped with K14-Cys
Take B1: the binding result was “binds”.

B2: P100SP-2 on phage (PEG100, specific attachment to ligand 2; bioconjugated to M13 phage wrapped with K14-Cys) (peptide)
peptide: SECVEVFQNSCDW-NH2
modifications: not fully specified (N-terminus); cysteine pairing not given here; also: Mal-PEG100-alkyne clicked (triazole) to azide at N-terminus
notes: as for B1
In the case of B2, the binding result is given as “binds”.

B3: P100SP-P4-2 on phage (PEG100, specific attachment, PEG4 linker, ligand 2; on M13 phage wrapped with K14-Cys) (peptide)
peptide: {Mal‑PEG100‑alkyne (triazole)-PEG4 linker}-SECVEVFQNSCDW-NH2
modifications: not fully specified; cysteine pairing not given here
notes: as for B1
Take B3: the binding result is listed as “binds”.

B4: P100NSP-2 on phage (PEG100, non-specific attachment to ligand 2; bioconjugated to M13 phage wrapped with K14-Cys) (peptide)
peptide: {pentynoic acid-Butanoyl(4-N3)}-SECVEVFQNSCDW-NH2
modifications: not fully specified; cysteine pairing not given here; also: Mal-PEG100 coupled non-specifically (N-terminal or side-chain carboxylate)
notes: Multivalent display on M13 phage wrapped with K14-Cys; also called PEGylated ligand 2; peptide-2
Turning to B4, the binding result is “binds”.
